# Laboratory results as given in patent US20260116991A1 (HAINAN SIMCERE ZAIMING PHARMACEUTICAL, published 2026).
# T1: polypeptide GC3pep (human)
# T1 construct: also called membrane proximal polypeptide GC3pep
# T1 peptide: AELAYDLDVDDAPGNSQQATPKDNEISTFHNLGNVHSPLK
# Tests used:
# polypeptide GC3pep [1] = molecular target: T1, polypeptide GC3pep; test: ELISA, GC3pep coated, antibody 1 nM;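 further: bound antibody detected with an HRP-conjugated secondary antibody and TMB substrate, reaction stopped with HCl, after 2 h binding at 37 °C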
# polypeptide GC3pep [2] = molecular target: T1, polypeptide GC3pep; test: ELISA, GC3pep coated, antibody 10 nM;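 further: antibody bound to the coated peptide for 2 h at 37 °C, detected through an HRP-conjugated secondary antibody with TMB colour development stopped by acid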
# polypeptide GC3pep [3] = molecular target: T1, polypeptide GC3pep; test: ELISA, GC3pep coated, antibody 0.1 nM;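 further: antibody allowed to bind the coated plate 2 h at 37 °C, then detected via HRP-conjugated secondary antibody and TMB development for 10 min, stopped with HCl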
# Method: (§1) The plate was sealed with a plastic film and incubated at 4° C. overnight, washed twice with PBS the next day, and a blocking solution [PBS+2% (w/w) BSA] was added for blocking at room temperature for 2 h. […] After incubation at 37° C. for 2 h, the plate was washed 3 times with PBS. A horseradish peroxidase (HRP)-labeled secondary antibody (purchased from Merck, Cat. No. AP113P) was added for incubation at 37° C. for 1 h, and the plate was washed 5 times with PBS. A TMB substrate was added at 50 μL/well for incubation at room temperature for 10 min, then a stop solution (1.0M HCl) was added at 50 μL/well.
# polypeptide GC3pep [4] = molecular target: T1, polypeptide GC3pep; test: ELISA, GC3pep coated, antibody 100 nM;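 further: detection with an HRP-conjugated secondary antibody and TMB substrate, color reaction stopped with HCl before absorbance reading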
# polypeptide GC3pep [5] = molecular target: T1, polypeptide GC3pep; test: ELISA, GC3pep coated, antibody 0.01 nM;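 further: bound antibody detected with an HRP-conjugated secondary antibody and TMB substrate, color reaction stopped with HCl before reading absorbance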
# Method: as §1
# polypeptide GC3pep [6] = molecular target: T1, polypeptide GC3pep; test: ELISA, GC3pep coated, antibody 0.001 nM
# polypeptide GC3pep [7] = molecular target: T1, polypeptide GC3pep; test: ELISA, GC3pep coated, antibody 0.0001 nM
Binder,OD450 nm (polypeptide GC3pep [1]) [OD450 nm],OD450 nm (polypeptide GC3pep [2]) [OD450 nm],OD450 nm (polypeptide GC3pep [3]) [OD450 nm],OD450 nm (polypeptide GC3pep [4]) [OD450 nm],OD450 nm (polypeptide GC3pep [5]) [OD450 nm],OD450 nm (polypeptide GC3pep [6]) [OD450 nm],OD450 nm (polypeptide GC3pep [7]) [OD450 nm]
"F1.153.1 (antibody, human IgG1, kappa, V domains shown, human-murine chimeric antibody) VH: QIQLVQSGPELKKPGETVKISCKASGYTFTTAGMQWVQKMPGKGFKWIGWINTHSGEPQYAEDFKGRFAFSLETSASTAYLQISNLKNEDTATYFCARSFYYHGSSFFYFDYWGQGTTLTVSS VL: DIVMTQSQKFMSTTVGDRVSITCKASQNVGTAVAWYQQKPGQSPKLLIYSASNRYTGVPDRFTGSGSGADFTLTISNMQSEDLADYFCQQYSRYPLTFGAGTKLELKR",0.04,0.05,0.05,0.11,0.04,0.05,0.06
"F2.55.11 (antibody, human IgG1, kappa, V domains shown, human-murine chimeric antibody) VH: EVKLVESGGGLVKPGGSLKLSCAASGLTFSTCTMSWVRQTPAKRLEWVATISSGGGNTYYPDSVKGRFTISRDNARNTLYLQMSSLRSEDTAMYYCVRLYYDGSPYAMDYWGQGTSVTVSS VL: DIQMTQTTSSLSASLGDRVTISCRASQDISNHLNWYQQKPDGTVKLLIYYTSRLHSGVPSRFSGSGSGTDYSLTISNLEQEDIATYFCQQDSKPPPTFGSGTKLEIKR",2.41,2.51,1.34,2.85,0.26,0.07,0.05
"F1.62.9 (antibody, human IgG1, kappa, V domains shown, human-murine chimeric antibody) VH: QVQLQQSDAELVKPGASVKISCKVSGYIFTDHTIHWMKQRPEQGLEWIGYIYPRDGSIKYNENFKGKATLTADKSSSATYMQLNSLTSEDSAVYFCARPIYYDYAYYFDYWGQGTTLTVSS VL: DVVMTQSPLSLPVSLGDQASISCRSRQSLVHSNGNTYLHWYLQKPGQSPKVLIYKVSNRFSGVPDRFSGSGSGTDFTLKISRVEAEDLGVYFCSQSTHVPYTFGGGTKLEIKR",0.05,0.07,0.05,0.13,0.05,0.05,0.05
"F2.23.8 (antibody, human IgG1, kappa, V domains shown, human-murine chimeric antibody) VH: QVQLQQSGAELVRPGASVKLSCKASGYTFTDYEMHWVKQTPVHGLEWFGAIDPETGGTAYNQKFRAKATLTADKSSSTAYMELRSLTSEDSAVYYCTRFYSFAYWGQGTLVTVSA VL: DVVMTQTPLSLPVSLGDQASISCRSSQSLVHSNGNTYLQWYLQKPGQSPKLLIYKVSNRFSGVPDRFSGSGSGTDFTLKITRVEAEDLGVYFCSQSTHVPYTFGSGTKLEIKR",2.12,2.42,1.38,2.51,0.3,0.1,0.07
"F2.92.1 (antibody, human IgG1, kappa, V domains shown, human-murine chimeric antibody) VH: QVQLQQSGAELVRPGASVKLSCKASGYIFSDYEIHWVKQTPVHGLECIGAVDPETGGTAYNQKFKGKATLTADKSSSTAYMELRSLTSEDSAVYFCTRFYSFAYWGQGTLVTVST VL: DVVMTQTPLSLPVSLGDQGSISCRSSQSLVHSNGNTYLQWYLQKPGQSPKLLIYKVSNRFSGVPDRFSGSGSGTDFTLKISRVEAEDLGVYFCCQSTHVLPTFGGGTKLEIKR",1.92,2.28,0.85,2.41,0.15,0.07,0.05
"F2.39.2 (antibody, human IgG1, kappa, V domains shown, human-murine chimeric antibody) VH: QVQLQQSGAELVRPGASVKVSCKASGYTFTDYEMHWMKQTPVHGLEWIGANEPETGRSAYDQKFKGKATLTADKSSSTAYMELRSLTSEDSAVYYCTRFYSFAYWGQGTLVTVSA VL: DVVMTQTPLSLPVSLGDQASISCRSSQGLVHNNGNTYLHWYLQKPGQSPKLLIYKVSNRFSGVPDRFSGSGSGTDFTLKISRVEAEDLGVYFCSQNTHVPPTFGGGTKLEIKR",2.21,2.38,1.35,2.58,0.32,0.09,0.05
"F1.9.19 (antibody, human IgG1, kappa, V domains shown, human-murine chimeric antibody) VH: DVQLQESGPGLVKPSQSLSLTCSVTGYSITSGYYWNWIRQFPGNRLEWMAYISYDGINNYNPSLKNRISIARDTSTNQFFLKLNSVTSEDTATYYCATTTEVALFDHWGQGTTLTVSS VL: DVLLTQTPLSLPVSLGDQASISCRSSQNIVHGNGNTYLEWFLQKPGQSPKLLIYKVSNRFSGVPDRFSGSGSGTDFTLKISRVEAEDLGLYYCFQASHVPWTFGGGTKLEIKR",0.06,0.06,0.04,0.08,0.05,0.07,0.05
"F3.38.7 (antibody, human IgG1, kappa, V domains shown, human-murine chimeric antibody) VH: QVQLQQSGAELVRPGASVKLSCKASGYTFTDYEIHWVKQTPVLGLEWIGAIDPKTGNTAYNQKFMGKATLTADKSSTTAYMDLRSLTSEDSAVYYCTRYFSFAYWGQGTLVTVSA VL: DVLMTQTPLSLPVSLGDQASISCRSSQTFVHSNGNTYLQWYLQKPGQSPKLLIYKVSNRFSGVPDRFSGSGSGTDFTLKISRVEAEDLGVYYCFQGSHVPYTFGSGTKLEIKR",2.57,2.83,1.01,3.22,0.19,0.06,0.05
"F2.154.1 (antibody, human IgG1, kappa, V domains shown, human-murine chimeric antibody) VH: QVQLQQSGAELVRPGASVKLSCKASGYRFTDYEMHWVKQTPVHGLEWIGTIDPETGNTAYTQKFMDKATLTADKSSSTAYMELRSLTSEDSAVYYCTRGYSFTYWGQGTLATVSA VL: DVLMTQTPLSLPVSLGDQASISCRSSQNIVHSNGNTYLQWYLQKPGQSPKLLIFKVSNRFSGVPDRFSGSGSGTDFTLKISRVEAEDLGVYYCFQGSHVPFTFGTGTKLEIKR",2.29,2.42,1.13,2.73,0.2,0.06,0.05
"F2.152.3 (antibody, human IgG1, kappa, V domains shown, human-murine chimeric antibody) VH: EVQLQQSGPELVKPGASVKMSCKASGYTFTDYYMTWVKQSHGKSLEWIGRVNPRNGDTTYNQKFEGRATLTLDKSLSTAFMQLNSLTSEDSAVYYCINSKGHFDYWGQGTTLTVSS VL: DVLMTQTPLSLPVSLGDQASISCRSSQSIVHSNGNTYLEWFLQKPGQSPKSLIYKVSNRFSGVPDRFSGSGSGTDFTLKISRVEAEDLGVYYCFQGSHVPPTFGAGTKLELKR",2.18,2.43,1.53,2.63,0.35,0.09,0.05
"F2.169.2 (antibody, human IgG1, kappa, V domains shown, human-murine chimeric antibody) VH: EVQLVETGGGLVQPKGSLKLSCAASGFSFNTNAMNWVRQAPGKGLEWVARIRSKSNNYATYYADSVKDRFTISRDDSQSMLYLQMNNLKTEDTAMYYCVRDGYYVLFAYWGQGTLVTVSA VL: DVLMTQTPLSLPVSLGDQASISCRFSQSIVNSNGNTYLEWFLQKPGQSPKLLIYKVSNRFSGVPDRFSGSGSGTDFTLKISRVEAEDLGVYYCFQGSHVPFTFGTGTKLEIKR",2.36,2.38,1.25,2.73,0.24,0.06,0.05
"F1.3.9 (antibody, human IgG1, kappa, V domains shown, human-murine chimeric antibody) VH: QVQLQQPGTELVKPGASVKLSCKASGYTFTSYWIHWVKQRPGQGLEWIGNINPPNAGTNYNEKFKSKATLTVDKSSSTAYMQLSSLTSEDSAVYYCARGRWLLHDYWGQGTTLTVSS VL: DIQMTQSPASLSISVGETVTITCRASENIYSNLAWYQQKQGKSPQLLVYGTKNLAEGVPSRFSGSGSGTQYSLKINSLQSEDFGNYYCQHFWGTPYTFGGGTKLEILR",0.05,0.06,0.05,0.13,0.05,0.05,0.07
"F1.136.7 (antibody, human IgG1, kappa, V domains shown, human-murine chimeric antibody) VH: EVQLQQSGPVMVKPGPSVKISCQTSGFTFTDYYIHWVKQSHGKSLEWIGLVFPYDGGTNYNQKFKDKATLTLDTSSSTAYMELNSLTSEDSAVYYCARAGGFSYALNYWGQGTSVTVSS VL: DIQMTQSPSSLSASLGGKVTITCKASQDINNYIAWYQHKPGKGPRLLIHFTSTLQPGIPSRFSGSGSGRDYSFSISNLEPEDIATYYCLQYDNLLLTFGAGTKLELKR",0.04,0.04,0.04,0.08,0.04,0.04,0.05
